Measurements taken from publication PMC3923783, “Competitive and Cooperative Interactions Mediate RNA Transfer from Herpesvirus Saimiri ORF57 to the Mammalian Export Adaptor ALYREF”.

Key:
[1] = target: ORF57 8-120;ALYREF 1-155 (REF2-I) (Herpesvirus saimiri;mouse, UniProt P13199;Q9JJW6 8-120;1-155, |); test: intrinsic Trp fluorescence titration; RNA into preformed 1:1 ORF57-ALYREF complex, 10 uM; apparent macroscopic Kd; Fluorescence: 20 mM phosphate pH 6.2, 50 mM NaCl, 50 mM L-Arg+L-Glu, 5 mM EDTA, 1 mM TCEP (temperature not stated); NMR: 20 mM phosphate pH 6.2, 50 mM NaCl, 50; conditions: protein: recombinant;recombinant; tags: ;; copies: 1;1
[2] = target: T1, ORF57 8-120 (Herpesvirus saimiri, UniProt P13199 8-120); test: intrinsic Trp fluorescence titration; Fluorescence: 20 mM phosphate pH 6.2, 50 mM NaCl, 50 mM L-Arg+L-Glu, 5 mM EDTA, 1 mM TCEP (temperature not stated); NMR: 20 mM phosphate pH 6.2, 50 mM NaCl, 50; conditions: protein: recombinant
[3] = target: T1, ORF57 8-120; test: NMR (HSQC titration, saturation transfer); aa64-120 broadened beyond detection at 1:1; Fluorescence: 20 mM phosphate pH 6.2, 50 mM NaCl, 50 mM L-Arg+L-Glu, 5 mM EDTA, 1 mM TCEP (temperature not stated); NMR: 20 mM phosphate pH 6.2, 50 mM NaCl, 50; conditions: protein: recombinant
[4] = target: His-ORF57 8-120 WT (Herpesvirus saimiri, UniProt P13199 8-120); test: UV cross-linking; Fluorescence: 20 mM phosphate pH 6.2, 50 mM NaCl, 50 mM L-Arg+L-Glu, 5 mM EDTA, 1 mM TCEP (temperature not stated); NMR: 20 mM phosphate pH 6.2, 50 mM NaCl, 50; conditions: protein: recombinant; tags: His6; label: radioactive end label
His-ORF57 8-120 WT, sequence (P13199 8-120): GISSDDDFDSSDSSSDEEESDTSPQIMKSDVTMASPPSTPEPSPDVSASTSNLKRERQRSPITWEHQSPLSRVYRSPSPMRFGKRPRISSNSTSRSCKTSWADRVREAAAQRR

T1 sequence (P13199 8-120): as above
ORF57 8-120;ALYREF 1-155 (REF2-I), sequence (P13199 8-120, chain 1 of 2): as the sequence (P13199 8-120) above
ORF57 8-120;ALYREF 1-155 (REF2-I), sequence (Q9JJW6 1-155, chain 2 of 2): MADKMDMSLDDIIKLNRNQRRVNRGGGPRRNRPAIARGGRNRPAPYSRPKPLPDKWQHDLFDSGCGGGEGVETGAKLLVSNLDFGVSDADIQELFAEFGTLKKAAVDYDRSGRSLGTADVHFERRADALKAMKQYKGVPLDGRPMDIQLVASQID

For CAGUCGCGAAGAGG (ssRNA) [14merS], the Kd [1] was 1.55 ± 0.24 µM and the Kd [2] was 7.57 ± 0.06 µM.

CAGUCGC (ssRNA) [7merN] showed a Kd [2] of 38.8 ± 0.6 µM.

GAAGAGG (ssRNA) [7merS]: binds [3].

GAAGAGG (ssRNA) [7merS end-labeled]: binds [4].
